According to the nanobody polyreactivity screen of Harvey et al. (2022):

Test: yeast display, Sf9 membrane polyspecificity reagent, FACS + sequencing; frameworks hold sequencing errors
Method in brief: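 A nanobody's polyreactivity label depends on the gate it was sorted from. Yeast display cells were stained with 10% biotinylated, detergent-solubilized Sf9 membrane reagent for 1 hour at 4 °C, enriched on streptavidin microbeads and sorted by FACS. The low and high (top ~1%) gates were set on anti-HA fluorescence for expression and streptavidin fluorescence for reagent binding.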

Question: With “QVQLVESGGGLVQAGGSLRLSCAASGLTFYAYAMGWYRQAPVKERELVAAISVRGRSTYYADSVKGRFTISRDIAKNTVFLQMNSLKPEDTAVYYCAAEFYRVQNFQFYYWGQGTQVTVSS” as the sequence, how does the “polyreactivity (PSR sort gate)” value read?
Answer: The value was “high polyreactivity”.

Question: For “QVQLVESGGGLVQAGGSLRLSCAASGLTFYDYAMGWYRQAPGKERELVADIDFNGGSTSYADSVKGRFTISRDNAKNTVYLQMNSLKPEDSAVYYCNSRDRGDVVTGLDYWGQGTQVTVSS”, which “polyreactivity (PSR sort gate)” value is on record?
Answer: The value was “low polyreactivity”.

Question: For “QVQLVESGGGLVQAGGSLRLSCAASGLTFYFYAMGWYRQAPGKERELVAAINSGGSTNYADSVKGRFTISRDNAKNTVYLQMNSLKPEDTAVYYCNADYYFTSYEYEYWGQGTQVTVSS”, which “polyreactivity (PSR sort gate)” value is on record?
Answer: The value was “low polyreactivity”.

Question: Which “polyreactivity (PSR sort gate)” value does the source give for “QVQLVESGGGLVQAGGSLRLSCAASGLTFYGYVMGWYRHAPGKERELVASISRSGGRTYYADSVKGRFTISRDNAKNTVYLQMNSLKAEDTAVYYCGAGDQVGQEDDYWGQGTQGTVSS” here?
Answer: The value was “low polyreactivity”.

Question: With “QVQLVESGGGLVQAGGSLRLSCAASGLTFYINDKGWYRQAPWKERELVAAINYSGGSTYYADSVKGRFTISRHNAKNTVYLQMNSLKPEDTAVYYCAADVSRWWGQHRYYSWGQGTQVTVSS” as the sequence, how does the “polyreactivity (PSR sort gate)” value read?
Answer: Its value is “high polyreactivity”.

Question: With “QVQLVESGGGLVQAGGSLRLSCAASGLTFYLNAMGWYRQAPGKERELVAGISYTGGSTYYADSVKGRFTISRDNAKNTVYLQMNSLKPEDTAVYYCARDNFYYGVWDYGYWGQGTQVTVSS” as the sequence, how does the “polyreactivity (PSR sort gate)” value read?
Answer: The value was “low polyreactivity”.

Question: With “QVQLVESGGGLVQAGGSLRLSCAASGLTFYNYAMGWYIQAPGKERELVATITSSGARTYYADSVKGRFTISRDNAKNTVYLQMNSLTPEDTAVYYCAKQAYDQSPYNYWGQGTQVTVSS” as the sequence, how does the “polyreactivity (PSR sort gate)” value read?
Answer: The value was “high polyreactivity”.

Question: Which “polyreactivity (PSR sort gate)” value does the source give for “QVQLVESGGGLVQAGGSLRLSCAASGLTFYPNAMGWYRQAPGKERELVAGITSGGSTYYADSVKGRFTISRDNAKNTVYLQMNSLKPEDTAVYYCAAYYNFGDYEYDYWGQGTQVTVSS” here?
Answer: The value was “low polyreactivity”.

Question: With “QVQLVESGGGLVQAGGSLRLSCAASGLTFYPYAMGWYRQAPGKESELVAAINWSGTTTYYADSVKGRFTISRDNAKNTVYLQMNSLKPADTAVYYCNADVYYEPTTGYYLWDYDYWGQGTQVTVSS” as the sequence, how does the “polyreactivity (PSR sort gate)” value read?
Answer: The value was “low polyreactivity”.

Question: Which “polyreactivity (PSR sort gate)” value does the source give for “QVQLVESGGGLVQAGGSLRLSCAASGLTFYQNDLGWYRQAPGKERELVAAITLSGDITYYADSVKGRFTISRDNAKNTVFLQMNSLKPEDTAVYYCNADLYVDPWTYFGYDYWGQGTQVTVSS” here?
Answer: The value was “low polyreactivity”.

Question: Which “polyreactivity (PSR sort gate)” value does the source give for “QVQLVESGGGLVQAGGSLRLSCAASGLTFYRNAMGRYRQAPGKERELVAAITASGGRTYYADSVKGRFTISRDNAKNTVYLQMNSLKPEVTAVYYCAADGKVQGGYYWGQGTQVTVSS” here?
Answer: The value was “high polyreactivity”.

Question: With “QVQLVESGGGLVQAGGSLRLSCAASGLTFYRYAMGWYRQAPGKERELVAAIRVSGNTYYADSVKGRFTISRDNAKNTVYLQMNSLKPEDTAVFYCAAIPYYFYGMDYWGQGTQVTVSS” as the sequence, how does the “polyreactivity (PSR sort gate)” value read?
Answer: Its value is “high polyreactivity”.

Question: For “QVQLVESGGGLVQAGGSLRLSCAASGLTFYRYAMGWYRQAPGKERELVAAITSSGRTNYADSVKGRFTISRDNAKNTVYLQMNSLKPEDTAVYYCNAVRRTFNGPGSSQGYDYWGQGTQVTVSS”, which “polyreactivity (PSR sort gate)” value is on record?
Answer: Its value is “high polyreactivity”.

Question: For “QVQLVESGGGLVQAGGSLRLSCAASGLTFYRYAMGWYRQAPGKERELVATIRSGDGTYYADSVKGRFTISRDNAMNTVYFKMNSLKPEDTAVYYCAAKKVYRVYGRYEYWGQGTQVTVSS”, which “polyreactivity (PSR sort gate)” value is on record?
Answer: The value was “high polyreactivity”.

Question: For “QVQLVESGGGLVQAGGSLRLSCAASGLTFYVYAMGWYRQAPGKEREFVAAISWSGTSTSYADSVKGRFTISRDNAKNTVYLQMNSLKPEDTAVYYCAADSFASVYFGTGYDYWGQGTQVTVSS”, which “polyreactivity (PSR sort gate)” value is on record?
Answer: Its value is “low polyreactivity”.

Question: For “QVQLVESGGGLVQAGGSLRLSCAASGLTFYWNAMGWYRQAPGKERELVASISQSSGNTYYADSVKGRFSISRDNAKNTVYLQMNSLKPEDTAVYYCAARNRPSLNRYYYWGQGTQVNVSS”, which “polyreactivity (PSR sort gate)” value is on record?
Answer: Its value is “low polyreactivity”.

Question: For “QVQLVESGGGLVQAGGSLRLSCAASGLTFYYYAMGWYRQAPGIEREFVAAINWDGGSTYYADSVKGRFTISRDKAKNTVYLQMNSLKPEDTAVYYCATGDTDYDYWGQGTQVTVSS”, which “polyreactivity (PSR sort gate)” value is on record?
Answer: Its value is “low polyreactivity”.

Question: For “QVQLVESGGGLVQAGGSLRLSCAASGLTFYYYAMGWYRQAPGKEREFVAAITRSGTNTYYADSVKGRFTISRDTAKNTVYLQMNSLKPEDTAVYYCAKTGYSFRVFRKYDWGQGTQVTVSS”, which “polyreactivity (PSR sort gate)” value is on record?
Answer: The value was “high polyreactivity”.

Question: For “QVQLVESGGGLVQAGGSLRLSCAASGLTFYYYAMGWYRQAPGKERELVAAISATGGRTYYADSVKGRFTISRDNAKNTVYLQMNSLKPEDTAVYYCAADTPYLRRRLGMDYWGQGTQVTVSS”, which “polyreactivity (PSR sort gate)” value is on record?
Answer: Its value is “high polyreactivity”.

Question: With “QVQLVESGGGLVQAGGSLRLSCAASGLTFYYYAMGWYRQAPGKERELVAAISCSGGSTYYADSVKGRFTISRDNAKNTVYLQMNSLKPEDTAVYYCAAEGDYFLWYRYDYWGQGTQVTVSS” as the sequence, how does the “polyreactivity (PSR sort gate)” value read?
Answer: Its value is “high polyreactivity”.

Question: Which “polyreactivity (PSR sort gate)” value does the source give for “QVQLVESGGGLVQAGGSLRLSCAASGLTFYYYAMGWYRQAPGKERELVAAISSVGSTYYADSVKGRFTISRDNAKNTVYLQRNSLKPEDTAVYYCAAKSYWWHEDYWGQGTQVTVSS” here?
Answer: The value was “low polyreactivity”.

Question: For “QVQLVESGGGLVQAGGSLRLSCAASGLTFYYYAMGWYRQATGKERELVATITRSGGGTYFADSVKGRFTISRDNAKNTVYLQMNSLKPEDTAVYYCAADLSWYVLFSGLYDYWGQGTQVTVSS”, which “polyreactivity (PSR sort gate)” value is on record?
Answer: The value was “high polyreactivity”.

Question: Which “polyreactivity (PSR sort gate)” value does the source give for “QVQLVESGGGLVQAGGSLRLSCAASGLTFYYYDMGWYRQAPGKERELVAAITTDGSTNYADSVKGRFTISRDNAKNTVYLQMNSLKPEDTAVYYCAADKYYRYNYWGQGTQVTVSS” here?
Answer: The value was “high polyreactivity”.

Question: Which “polyreactivity (PSR sort gate)” value does the source give for “QVQLVESGGGLVQAGGSLRLSCAASGLTFYYYVMAWYRQAPGKERELVAAISRSGGSTRYADSVKGRFTISRDNANNTVYLQMNSLKPEDTAVYYCNAVRYPRLMYYWGQGTQVTVSS” here?
Answer: The value was “high polyreactivity”.

Question: With “QVQLVESGGGLVQAGGSLRLSCAASGLTILPNAMGWYRPAPGKERELVAAISWGDGNTYYADSVKGRFTISRDNAKNTVYLQMNSLKPEDTAVYYCAADVIKSRTYDYWGQGTQVTVSS” as the sequence, how does the “polyreactivity (PSR sort gate)” value read?
Answer: The value was “low polyreactivity”.

Question: Which “polyreactivity (PSR sort gate)” value does the source give for “QVQLVESGGGLVQAGGSLRLSCAASGLTIRYYAMGWYRKAPGKERELVAAISSSGGRTYYADSVKGRFTISRDNAKNTVYLQMNSLKPEDTAVYYCSRDYGYGLMGYWGQGTQVTVSS” here?
Answer: The value was “high polyreactivity”.

Question: With “QVQLVESGGGLVQAGGSLRLSCAASGLTISAYAMGWYRQAPGKERELVAAITSSGGSTYADSVKGRFTISRDNAKNTVYLQMNSLKPEVTAVYYCAARVVRYGYKYYYWGQGTQVTVSS” as the sequence, how does the “polyreactivity (PSR sort gate)” value read?
Answer: Its value is “low polyreactivity”.

Question: With “QVQLVESGGGLVQAGGSLRLSCAASGLTISRYAMGWYRQAPGKEREFVASISISSVDTYYADSVKGRFTISRDNAKNTVYLQMNSLKPEDTAVYYCAAAGRVGVTRYYSWGQGTQVTVSS” as the sequence, how does the “polyreactivity (PSR sort gate)” value read?
Answer: The value was “high polyreactivity”.

Question: For “QVQLVESGGGLVQAGGSLRLSCAASGLTISWYAMGWYRQAPGKEWELVAAISTRGGRTYYADSVKGRFTISRDNAKNTVYLQMNSRKQEDNAVYYCAAGVYYRYLWLFDYWGQGTQVTVSS”, which “polyreactivity (PSR sort gate)” value is on record?
Answer: Its value is “high polyreactivity”.

Question: With “QVQLVESGGGLVQAGGSLRLSCAASGLTIVQYAMGWYRQAPGKERELVARISRNGGSSYYADSVKGRFPISRDNAKNTVYLQMNSLKPEDTAVYYCNALRGPVKFYYWGQGTQVTVSS” as the sequence, how does the “polyreactivity (PSR sort gate)” value read?
Answer: The value was “low polyreactivity”.

Question: Which “polyreactivity (PSR sort gate)” value does the source give for “QVQLVESGGGLVQAGGSLRLSCAASGLTIWYYSMGLYRQAPGKEREFVAAITSRGGDTNYADSVKGRFTISRDNAKNTVYLQMNSLKPEDTAVYYCAVRPRYYGTYRYYYWGQGTQVTVSS” here?
Answer: The value was “high polyreactivity”.

Question: With “QVQLVESGGGLVQAGGSLRLSCAASGLTLAGYAMGWYRQAPGKERELVAAITASGVRTYYADSVKGRFTISRDNAKNTVYLQMNSLKPEDTAVYYCAAGVQTQRGGYAIYRPGLRYYWGQGTQVTVSS” as the sequence, how does the “polyreactivity (PSR sort gate)” value read?
Answer: The value was “high polyreactivity”.

Question: With “QVQLVESGGGLVQAGGSLRLSCAASGLTLDKYAMGWYRPAPRKERELVAGINSRGGSTYADSVKGRFTISRDNAKNTVYLQMNSMKPEDTAVYYCAADGKVQGGYYWGQGTQVTVSS” as the sequence, how does the “polyreactivity (PSR sort gate)” value read?
Answer: The value was “high polyreactivity”.

Question: For “QVQLVESGGGLVQAGGSLRLSCAASGLTLETNAMGWYRQAPGKERELVAGITYSGGTTYYADSVKGRFTISRDNAKNTVYLQMNSLKPEDTAVYYCAAHTRTSGHNYWGQGTQVTVSS”, which “polyreactivity (PSR sort gate)” value is on record?
Answer: Its value is “low polyreactivity”.

Question: For “QVQLVESGGGLVQAGGSLRLSCAASGLTLGRNAMGWYRQAPGKERELVAAITQSGGSTYYADSVKGRFTISRDNAKNTVYLQMNSLKAEDTAVYYCAAEVVRQWHGIGYDYWGQGTQVTVSS”, which “polyreactivity (PSR sort gate)” value is on record?
Answer: Its value is “low polyreactivity”.

Question: With “QVQLVESGGGLVQAGGSLRLSCAASGLTLGSYAMGWYRQAPGKERELVAAISRRSGRTYYADSVKGRFTISRDNAKNTVYLQMNSLKPEDTAVYYCNRGYTAQVYTEFDYWGQGTQVTVSS” as the sequence, how does the “polyreactivity (PSR sort gate)” value read?
Answer: The value was “low polyreactivity”.

Question: For “QVQLVESGGGLVQAGGSLRLSCAASGLTLLKNAMGWYRQAPGKEREYADSVKGRFTISRDNAKNTVYLQMNSLKPEDTAVYYCAKDVNGGYFYYQYPAQYYYWGQGTQVTVSS”, which “polyreactivity (PSR sort gate)” value is on record?
Answer: The value was “low polyreactivity”.

Question: With “QVQLVESGGGLVQAGGSLRLSCAASGLTLRNYAMGWYRQAPGKERELVARITTGGSTHYADSVKGRFTISRDNAKNTVSLQMHSLKPEDTAVYYCNTGPYTFVSPEYYYWGQGTQVTVSS” as the sequence, how does the “polyreactivity (PSR sort gate)” value read?
Answer: The value was “low polyreactivity”.

Question: For “QVQLVESGGGLVQAGGSLRLSCAASGLTLRWYDMGWYRQAPGKERELVAAITTNGGSTYYADSVKGRFTISRDNAKNTVYLQMNSLKPEDTAVYYCAALYWRSTVGAYSTYEYDYWGQGTQVTVSS”, which “polyreactivity (PSR sort gate)” value is on record?
Answer: Its value is “high polyreactivity”.

Question: For “QVQLVESGGGLVQAGGSLRLSCAASGLTLSGYAMGWYRQAPGKERELVAAISSTGGSTYYADSVKGRFTISRDNAKNTVYLQMNSLKPEDTAVYYCAKGYSPTRVRLRYPRYDTYNHWGQGTQVTVSS”, which “polyreactivity (PSR sort gate)” value is on record?
Answer: Its value is “high polyreactivity”.

Question: For “QVQLVESGGGLVQAGGSLRLSCAASGLTLSYNAMGWYRQAPGKERELVAAIRSGGSTNYADSVKGRFTISRDNAKNTVYLQMNSLKPVDTAVYYCAARFRYLPYRYGRYQSGYEYWGQGTQVTVSS”, which “polyreactivity (PSR sort gate)” value is on record?
Answer: Its value is “high polyreactivity”.
